Measurements taken from patent publication CN108640991A (JIANGSU QYUNS BIOMEDICINE CO LTD, dated 2018).

Molecular target: T1, 人白介素17A (Human Interleukin-17A) (human, UniProt Q16552 24-155)
T1 construct: also called hIL-17A; IL-17A
Assay: SPR Biacore T200, 25°C, antibody captured on Protein A CM5 chip, antigen in solution, 1:1 model

T1 sequence (Q16552 24-155): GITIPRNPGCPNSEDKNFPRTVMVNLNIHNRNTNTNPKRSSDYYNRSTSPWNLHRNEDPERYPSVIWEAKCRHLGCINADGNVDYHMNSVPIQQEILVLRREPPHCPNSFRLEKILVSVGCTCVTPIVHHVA

Kd	koff	kon	Binder
0.0154 nM	2.58e-05 s⁻¹	1.7e+06 M⁻¹ s⁻¹	Ixekizumab (antibody, V domains shown) VH: QVQLVQSGAEVKKPGSSVKVSCKASGYSFTDYHIHWVRQAPGQGLEWMGVINPMYGTTDYNQRFKGRVTITADESTSTAYMELSSLRSEDTAVYYCARYDYFTGTGVYWGQGTLVTVSS VL: DIVMTQTPLSLSVTPGQPASISCRSSRSLVHSRGNTYLHWYLQKPGQSPQLLIYKVSNRFIGVPDRFSGSGSGTDFTLKISRVEAEDVGVYYCSQSTHLPFTFGQGTKLEIKR
0.00707 nM	2.36e-05 s⁻¹	3.35e+06 M⁻¹ s⁻¹	抗人白介素17A单克隆抗体QX002N (antibody, V domains shown, Humanised from rabbit clone 37#; also called 37-5) VH: EVQLQESGPGLVKPSETLSLTCTVSGIDLSLFYMSWIRQPPGKGLEWIGTIHEVASSYYASWAKGRVTISKDTSKNQFSLKLSSVTAADTAVYYCARETYSSRYPYPNIWGQGTLVTVSS VL: DIQMTQSPSSVSASVGDRVTITCQASQNIGGSLAWYQQKPGKAPKLLIYGASSLASGVPSRFSGSGSGTDFTLTISSLQPEDFATYYCQSYNTISTYGLAFGGGTKVEIK
